What was measured:
human TfR (cell-bound) = target: T1, human TfR (cell-bound) (human, UniProt P02786 1-760); assay: flow cytometry on hCMEC-D3 cells (endogenous human TfR), on ice, PE-labeled secondary
T1 construct: Endogenous receptor on hCMEC-D3 cells (stated); also called hTFR; human transferrin receptor on hCMEC-D3 cells
Description: (§1) Human endothelial line hCMEC-D3 (EMD Millipore SC066), endogenously expressing human TfR and MDCK cell line (ATCC CCL-34), engineered to express cynomolgus TfR were utilized to evaluate antibody/protein binding to cell-bound TfR. Cells were grown and maintained at submaximal confluence and detached from cultureware using Accutase cell detachment solution, washed, and allocated at 50000 cells per well for assessment of binding. Cells were treated with a viability stain then subsequently incubated with titrated concentrations of TfR binding proteins on ice. Cells were washed and binding of test antibodies or proteins was detected using a PE-labeled secondary reagent. Cells were then washed and read on the same day using a BioRad ZE5 cytometer. Analysis was performed post-acquisition in FlowJo, analyzing fluorescence of single, viable, non-debris events. EC50 values were derived by plotting geometric median PE intensity values across a given sample titration and fitting a sigmoidal (4PL) response curve in GraphPad Prism 8.3.0.

[1] = target: T2, cynomolgus TfR (on MDCK cells) (cynomolgus, UniProt H9EXL1 1-760 (rhesus entry)); assay: flow cytometry on MDCK cells engineered to express cynomolgus TfR, on ice, PE-labeled secondary
T2 construct: whole, on cells; also called Cyno MDCK
Description: as §1

[2] = target: T3, human TfR ECD (His-tagged) (human, UniProt P02786 89-760); assay: SPR (Biacore 8K), 37 C; TfR ECD amine-coupled to CM4 chip, TBP as analyte; multi-cycle kinetics, 2-state fit; n = 3
T3 construct: also called hTfR-ECD-6His; his-tagged hTfR-ECD
Description: (§2) Target human and cynomolgous TfR ECD's were immobilized on a CM4 chip (Cytiva P/N 29104989) using standard NHS-EDC amine coupling. The TfR binding proteins were prepared at a final concentration of 0.3, 0.1, 0.033, 0.01, 0.0033, 0.001, 0.00033, 0.0001 μM respectively by dilution of stock solution into running buffer.
(§3) Binding analysis was performed in a multi-cycle kinetics manner. Each analysis cycle consists of (1) injection of the lowest to highest concentration proteins over all Fc at 50 μL/min for 140 seconds followed by return to buffer flow for 400 seconds to monitor dissociation phase; (2) regeneration of chip surfaces with injection of 3M magnesium chloride, for 30 seconds at 100 μL/min over all cells; and (3) equilibration of chip surfaces with a 50 μL (30-sec) injection of HBS-EP+. Data were processed using standard double-referencing and fit to a 2-state binding model using Biacore 8K Evaluation software, to determine the association rate (kₒₙ, M⁻¹s⁻¹ units), dissociation rate (koff, s⁻¹ units), and Rₘₐₓ (RU units). The equilibrium dissociation constant (KD) is calculated from the relationship KD=koff/kₒₙ, and is in molar units.

cynomolgus TfR ECD [3] = target: T4, cynomolgus TfR ECD (cynomolgus); assay: as above
T4 construct: extracellular domain; amine-coupled in the 37 C assay; also called Cyno TfR; His-tagged cynomolgus TfR ECD
Description: as §2, §3

cynomolgus TfR ECD [4] = target: T5, cynomolgus TfR ECD (cynomolgus); assay: as above
T5 chain: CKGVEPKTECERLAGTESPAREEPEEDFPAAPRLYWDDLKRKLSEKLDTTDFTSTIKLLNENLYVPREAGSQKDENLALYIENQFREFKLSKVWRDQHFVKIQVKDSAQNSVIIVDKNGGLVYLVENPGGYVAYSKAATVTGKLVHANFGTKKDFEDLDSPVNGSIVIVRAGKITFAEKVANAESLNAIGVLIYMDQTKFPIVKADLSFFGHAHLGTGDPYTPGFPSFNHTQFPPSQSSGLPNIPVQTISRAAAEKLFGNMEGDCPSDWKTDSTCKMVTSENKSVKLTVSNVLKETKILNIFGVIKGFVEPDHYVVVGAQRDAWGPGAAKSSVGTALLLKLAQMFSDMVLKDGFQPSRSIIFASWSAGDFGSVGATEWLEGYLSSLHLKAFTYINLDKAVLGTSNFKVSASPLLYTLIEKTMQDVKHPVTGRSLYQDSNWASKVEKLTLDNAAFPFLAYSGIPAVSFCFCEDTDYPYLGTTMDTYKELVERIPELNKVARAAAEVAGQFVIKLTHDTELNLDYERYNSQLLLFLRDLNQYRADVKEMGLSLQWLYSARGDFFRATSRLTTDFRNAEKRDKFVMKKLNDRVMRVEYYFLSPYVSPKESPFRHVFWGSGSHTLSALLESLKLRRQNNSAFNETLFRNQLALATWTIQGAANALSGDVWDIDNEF
Description: as §2, §3

cynomolgus TfR ECD [5] = target: T5, cynomolgus TfR ECD; assay: SPR (Biacore 8K), 25 C; His-tagged TfR ECD captured by anti-His antibody, TBP as analyte; single-cycle kinetics, 2-state fit
Description: (§4) An anti-His antibody was immobilized on a CM5 chip (Cytiva P/N 29104988) using standard NHS-EDC amine coupling on all four flow cells (Fc). Target (human or cynomolgus TfR ECD) were prepared in the running buffer at final concentration of 500 μg/mL.
(§5) Binding analysis was performed in a single-cycle kinetics manner. Each analysis cycle consists of (1) capturing the target (His-tagged human or cynomolgus TfR ECD) samples on separate flow cells (Fc2, Fc3 and Fc4); (2) injection of the lowest to highest concentration of antibodies or proteins over all Fc at 30 μL/min for 900 seconds followed by return to buffer flow for 1800 seconds to monitor dissociation phase; (3) regeneration of chip surfaces with injection of 10 mM glycine, pH 1.5, for 30 seconds at […] over all cells; and (4) equilibration of chip surfaces with a 10 μL (60-sec) injection of HBS-EP+. Data were processed using standard double-referencing and fit to a 2-state binding model using Biacore 8K Evaluation software, to determine the association rate (kₒₙ, M⁻¹s⁻¹ units), dissociation rate (koff, s⁻¹ units), and Rₘₐₓ (RU units). The equilibrium dissociation constant (KD) is calculated from the relationship KD=koff/kₒₙ, and is in molar units.

[6] = target: T3, human TfR ECD (His-tagged); assay: as above
Description: as §4, §5
Target sequence in this assay (P02786 other isoform, or with tags, fused parts or gaps): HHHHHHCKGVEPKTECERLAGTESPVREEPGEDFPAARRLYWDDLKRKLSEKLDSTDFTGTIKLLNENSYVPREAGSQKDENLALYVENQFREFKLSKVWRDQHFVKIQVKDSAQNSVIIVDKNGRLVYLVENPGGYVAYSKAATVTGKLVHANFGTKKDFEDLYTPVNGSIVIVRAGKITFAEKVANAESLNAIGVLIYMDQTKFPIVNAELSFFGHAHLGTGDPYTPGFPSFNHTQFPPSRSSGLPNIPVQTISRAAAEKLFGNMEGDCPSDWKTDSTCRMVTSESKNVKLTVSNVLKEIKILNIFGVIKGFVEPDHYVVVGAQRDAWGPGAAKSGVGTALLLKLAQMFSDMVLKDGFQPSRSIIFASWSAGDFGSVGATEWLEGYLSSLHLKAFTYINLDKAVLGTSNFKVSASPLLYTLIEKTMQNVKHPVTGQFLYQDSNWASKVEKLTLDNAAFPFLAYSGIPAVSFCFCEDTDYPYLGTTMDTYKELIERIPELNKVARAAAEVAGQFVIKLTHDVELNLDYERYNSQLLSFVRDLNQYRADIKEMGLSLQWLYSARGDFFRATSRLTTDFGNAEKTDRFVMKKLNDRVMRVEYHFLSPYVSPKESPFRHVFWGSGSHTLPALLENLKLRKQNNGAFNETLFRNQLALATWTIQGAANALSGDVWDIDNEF

T1 sequence (P02786 whole entry): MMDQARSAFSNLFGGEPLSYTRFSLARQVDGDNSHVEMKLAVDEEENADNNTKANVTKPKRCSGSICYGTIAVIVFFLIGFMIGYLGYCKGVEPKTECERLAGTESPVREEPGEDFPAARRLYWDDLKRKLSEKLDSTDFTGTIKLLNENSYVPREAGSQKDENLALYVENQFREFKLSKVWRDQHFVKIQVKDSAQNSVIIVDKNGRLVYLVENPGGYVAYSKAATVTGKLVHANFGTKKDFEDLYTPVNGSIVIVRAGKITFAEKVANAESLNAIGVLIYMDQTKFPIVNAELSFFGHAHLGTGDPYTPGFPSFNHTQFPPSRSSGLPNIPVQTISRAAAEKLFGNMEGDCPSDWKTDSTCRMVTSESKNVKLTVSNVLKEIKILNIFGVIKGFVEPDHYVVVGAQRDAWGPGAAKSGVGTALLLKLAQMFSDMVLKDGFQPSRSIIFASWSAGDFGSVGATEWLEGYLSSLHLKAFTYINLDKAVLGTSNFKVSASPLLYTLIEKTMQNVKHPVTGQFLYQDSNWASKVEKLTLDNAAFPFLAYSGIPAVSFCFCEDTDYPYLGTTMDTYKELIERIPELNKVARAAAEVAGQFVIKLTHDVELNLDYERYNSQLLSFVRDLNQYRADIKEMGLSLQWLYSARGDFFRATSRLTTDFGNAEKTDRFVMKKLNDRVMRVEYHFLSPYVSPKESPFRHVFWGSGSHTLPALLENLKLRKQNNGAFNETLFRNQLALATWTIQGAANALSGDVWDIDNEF

Binder | EC50 (human TfR (cell-bound)) [nM] | EC50 [1] [nM] | Kd [2] [nM] | Kd (cynomolgus TfR ECD [3]) [nM] | Kd (cynomolgus TfR ECD [4]) [nM] | Kd (cynomolgus TfR ECD [5]) [nM] | Kd [6] [pM]
TBP14-SNCA siRNA (dsRNA No. 10 in Table 11a) (antibody, SNCA siRNA (dsRNA No. 10) conjugated through a linker at the engineered cysteine (A378C, EU numbering, by the name in Table 6b), Protein-siRNA conjugate of TBP14; also called TBP14-SNCA siRNA conjugate) heavy: EVQLVESGGGLVKPGGSLRLSCVASGFTFSSYSMNWVRQAPGKGLEWVSSISSSSSYIYYADSVKGRFTISRDNAKNSLYLQMNSLRAEDTAVYYCARRHGYSNSDAFDNWGQGTLVTVSSASTKGPSVFPLAPCSRSTSESTAALGCLVKDYFPEPVTVSWNSGALTSGVHTFPAVLQSSGLYSLSSVVTVPSSSLGTKTYTCNVDHKPSNTKVDKRVESKYGPPCPPCPAPEAAGGPSVFLFPPKPKDTLMISRTPEVTCVVVDVSQEDPEVQFNWYVDGVEVHNAKTKPREEQFNSTYRVVSVLTVLHQDWLNGKEYKCKVSNKGLPSSIEKTISKAKGQPREPQVSTLPPSQEEMTKNQVSLMCLVYGFYPSDICVEWESNGQPENNYKTTPPVLDSDGSFFLYSVLTVDKSRWQEGNVFSCSVMHEALHNHYTQKSLSLSLG light: DIQMTQSPSAMSASVGDRVTITCRASQGISHYLVWFQQKPGKVPKRLIYAASSLQSGVPSRFSGSGSGTEFTLTISSLQPEDFATYYCLQHNSYPWTFGQGTKVEIKRTVAAPSVFIFPPSDEQLKSGTASVVCLLNNFYPREAKVQWKVDNALQSGNSQESVTEQDSKDSTYSLSSTLTLSKADYEKHKVYACEVTHQGLSSPVTKSFNRGEC ESKYGPPCPPCPAPEAAGGPSVFLFPPKPKDTLMISRTPEVTCVVVDVSQEDPEVQFNWYVDGVEVHNAKTKPREEQFNSTYRVVSVLTVLHQDWLNGKEYKCKVSNKGLPSSIEKTISKAKGQPREPQVYTLPPSQGDMTKNQVQLTCLVKGFYPSDICVEWESNGQPENNYKTTPPVLDSDGSFFLASRLTVDKSRWQEGNVFSCSVMHEALHNHYTQKSLSLSLG | 298 | 225 | 541 | – | – | – | –
TBP14 (TBD4-one arm heteromab, A378C) (antibody, human IgG4 S228P, kappa, F234A L235A, One-armed antibody: two heavy chains (HC1 full, HC2 Fc only) and one light chain; no LC2) heavy: EVQLVESGGGLVKPGGSLRLSCVASGFTFSSYSMNWVRQAPGKGLEWVSSISSSSSYIYYADSVKGRFTISRDNAKNSLYLQMNSLRAEDTAVYYCARRHGYSNSDAFDNWGQGTLVTVSSASTKGPSVFPLAPCSRSTSESTAALGCLVKDYFPEPVTVSWNSGALTSGVHTFPAVLQSSGLYSLSSVVTVPSSSLGTKTYTCNVDHKPSNTKVDKRVESKYGPPCPPCPAPEAAGGPSVFLFPPKPKDTLMISRTPEVTCVVVDVSQEDPEVQFNWYVDGVEVHNAKTKPREEQFNSTYRVVSVLTVLHQDWLNGKEYKCKVSNKGLPSSIEKTISKAKGQPREPQVSTLPPSQEEMTKNQVSLMCLVYGFYPSDICVEWESNGQPENNYKTTPPVLDSDGSFFLYSVLTVDKSRWQEGNVFSCSVMHEALHNHYTQKSLSLSLG light: DIQMTQSPSAMSASVGDRVTITCRASQGISHYLVWFQQKPGKVPKRLIYAASSLQSGVPSRFSGSGSGTEFTLTISSLQPEDFATYYCLQHNSYPWTFGQGTKVEIKRTVAAPSVFIFPPSDEQLKSGTASVVCLLNNFYPREAKVQWKVDNALQSGNSQESVTEQDSKDSTYSLSSTLTLSKADYEKHKVYACEVTHQGLSSPVTKSFNRGEC ESKYGPPCPPCPAPEAAGGPSVFLFPPKPKDTLMISRTPEVTCVVVDVSQEDPEVQFNWYVDGVEVHNAKTKPREEQFNSTYRVVSVLTVLHQDWLNGKEYKCKVSNKGLPSSIEKTISKAKGQPREPQVYTLPPSQGDMTKNQVQLTCLVKGFYPSDICVEWESNGQPENNYKTTPPVLDSDGSFFLASRLTVDKSRWQEGNVFSCSVMHEALHNHYTQKSLSLSLG | – | – | 154 | 300 | – | – | –
TBP5 (TBD5 Fab-hIgG4PAA Fc) (antibody, V domains shown, Fab-Fc format, one HC and one LC) VH: EVQLVESGGGLVQPGGSLRLSCAASGFTFRTYWMHWVRQAPGKGLLWVSRINGDGSRTNYADSVKGRFTISRDNAKKTLYLQMNSLRAEDTAVYFCARSSYAFDVWGQGTMVTVSS VL: DVVMTQTPLSLPVTPGEPASISCRSSQSLLDSDDGSTYLDWYLQKPGQSPQLLIYLLSNRASGVPDRFSGSGSGTVFTLKISSVEAADVGVYYCMQRIEFPLTFGGGTKVEIKR | 4.83 | 1.63 | 4.25 | – | 156 | 1.47 | 590
TBP6 (TBD6 Fab-hIgG4PAA Fc) (antibody, V domains shown, Fab-Fc format, one HC and one LC) VH: EVQLVESGGGLVQPGGSLRLSCAASGFTFRTYWMHWVRQAPGKGLVWVSRINSDGSRTNYADSVKGRFTISRDNAKNTLYLQMNSLRAEDTAVYYCARSSYAFDVWGQGTLVTVSS VL: DIVMTQTPLSLPVTPGEPASISCRSSQSLLDSDDGSTYLDWYLQKPGQSPQLLIYLLSNRASGVPDRFSGSGSGTDFTLKISRVEAEDVGVYYCMQRIEFPLTFGGGTKVEIKR | 1.2 | 0.76 | 2.25 | – | 92.5 | 7.7 | 60
TBP1 (TBD1 Fab-hIgG4PAA Fc) (antibody, V domains shown) VH: EVQLVESGGGLVKPGGSLRLSCVASGFTFSSYSMNWVRQAPGKGLEWVSSISRSSSYIYYADSVKGRFTISRDNAKNSLYLQMNSLRAEDTAVYYCAREHGYSNSDAFDIWGQGTLVTVSS VL: DIQMTQSPSAMSASVGDRVTITCRASQGISNYLAWFQQKPGKVPKRLIYAASSLQSGVPSRFSGSGSGTEFTLTISSLQPEDFATYYCLQHNSYPRTFGQGTKVEIKR | 0.47 | 510 | 0.966 | – | – | 145 | 110
TBP3 (TBD3 Fab-hIgG4PAA Fc) (antibody, V domains shown, Fab-Fc format, one HC and one LC) VH: EVQLVESGGGLVKPGGSLRLSCVASGFTFSSYSMNWVRQAPGKGLEWVSSISRSSSYIYYADSVKGRFTISRDNAKNSLYLQMNSLRAEDTAVYYCARIHGYSNSDAFDIWGQGTLVTVSS VL: DIQMTQSPSAMSASVGDRVTITCRASQGISHYLVWFQQKPGKVPKRLIYAASSLQSGVPSRFSGSGSGTEFTLTISSLQPEDFATYYCLQHNSYPRTFGQGTKVEIKR | 0.14 | 0.15 | 0.005 | – | 0.254 | 0.015 | 0.048

— US20240059784A1 (Eli Lilly, published 2024)
